Reference: patent US20140256918A1 (published 2014)

How the values were obtained:
[1] = biological target: CD52 displayed on virus-like particles (CD52 VLP) (UniProt P31358); assay: SPR (Biacore), CD52 VLP captured by Campath and crosslinked on C1 chip, mAb injected; second curve
[2] = biological target: CD52 displayed on virus-like particles (CD52 VLP) (UniProt P31358); assay: SPR (Biacore), CD52 VLP captured by Campath and crosslinked on C1 chip, mAb injected
[3] = biological target: biotinylated N-terminal hCXCR5 peptide (human); assay: SPR (Biacore), reversed format: biotinylated peptide on SA chip, mAb injected; mean
[4] = biological target: hCXCR5 N-terminal peptide (human); assay: SPR (Biacore), conventional format: mAb captured by anti-mouse antibody on CM5 chip, peptide injected; mean
[5] = biological target: biotinylated N-terminal hCXCR5 peptide (human); assay: SPR (Biacore), reversed format, biotinylated peptide on SA chip at 100 RU; mean
[6] = biological target: biotinylated N-terminal hCXCR5 peptide (human); assay: SPR (Biacore), reversed format, biotinylated peptide on SA chip at 5 RU; mean
[7] = biological target: biotinylated N-terminal hCXCR5 peptide (human); assay: SPR (Biacore), reversed format, biotinylated peptide on SA chip at 20 RU; mean
[8] = biological target: C-terminal 6×His-tagged hCXCR5 whole receptor protein (human) (UniProt P32302); assay: SPR (Biacore), whole receptor captured and crosslinked on NTA chip at 700 RU, analyte injected; mean of triplicate
[9] = biological target: C-terminal 6×His-tagged hCXCR5 whole receptor protein (human) (UniProt P32302); assay: SPR (Biacore), whole receptor captured and crosslinked on NTA chip at 300 RU, analyte injected; mean of triplicate
[10] = biological target: biotinylated N-terminal hCXCR5 peptide (human); assay: SPR (Biacore), reversed format, biotinylated peptide on SA chip at 100 RU; mean; called artificial, outside the Biacore accuracy limit
[11] = biological target: T1, C-terminal 6×His-tagged hCXCR5 whole receptor protein (human, UniProt P32302 1-372, crosslinked on the chip with NHS/EDC after capture); assay: SPR (Biacore), whole receptor captured and crosslinked on NTA chip at 300 RU, analyte injected; mean of triplicate
T1 construct: mature; Purified whole receptor (monomers, dimers and trimers on SDS-PAGE), captured on a Ni-NTA chip and stabilized by limited crosslinking; also called human CXCR5 receptor; 6×His-hCXCR5
T1 sequence: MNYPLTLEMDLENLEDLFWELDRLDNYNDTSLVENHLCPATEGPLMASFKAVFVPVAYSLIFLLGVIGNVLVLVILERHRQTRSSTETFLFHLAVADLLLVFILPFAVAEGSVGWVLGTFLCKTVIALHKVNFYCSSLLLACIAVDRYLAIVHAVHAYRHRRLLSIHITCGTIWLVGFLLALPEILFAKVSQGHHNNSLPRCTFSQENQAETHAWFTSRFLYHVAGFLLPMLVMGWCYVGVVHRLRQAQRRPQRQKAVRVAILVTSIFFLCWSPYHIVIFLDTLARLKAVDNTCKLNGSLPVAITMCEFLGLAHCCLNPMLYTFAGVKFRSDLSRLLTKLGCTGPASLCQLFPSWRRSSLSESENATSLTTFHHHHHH
Method: For direct capturing by an NTA SPR sensor chip, the purified 6×His-hCXCR5 protein was diluted to 50 ug/ml with HBS—N (from GE) buffer. An NTA reagent kit (GE) was used for chip surface preparation. The flow rate was set to 5 ul/ml and HBS—N was used as the running buffer. […] In order to stabilize native-like structure of the receptor captured on the chip surface, the commonly used amine coupling reagent NHS/EDC was tested at different concentrations as shown in FIGS. 11 and 12.
In order to assess the impact of the avidity effect on this capture and stabilization method, chip surfaces with different receptor densities were prepared.

[12] = biological target: biotinylated N-terminal hCXCR5 peptide (human); assay: SPR (Biacore), reversed format: biotinylated peptide on SA chip; the reference of the comparison is not named (by Table 2, the other two clones)
[13] = biological target: T1, C-terminal 6×His-tagged hCXCR5 whole …; assay: SPR (Biacore), whole receptor captured and crosslinked on NTA chip at 700 RU, analyte injected; mean of triplicate
[14] = biological target: biotinylated N-terminal hCXCR5 peptide (human); assay: SPR (Biacore), reversed format, biotinylated peptide on SA chip at 100 RU; mean; affected by avidity and artificial Koff

anti-CD52 mAb (Campath) (antibody)
Kd [1]: 5810 pM
koff [1]: 0.000937 s⁻¹
kon [1]: 161000 M⁻¹ s⁻¹
Kd [2]: 5750 pM
koff [2]: 0.00109 s⁻¹
kon [2]: 189000 M⁻¹ s⁻¹

mouse anti-hCXCR5 mAb MAB190 (antibody)
Kd [3]: 141 pM
koff [3]: 0.000595 s⁻¹
kon [3]: 4.23e+06 M⁻¹ s⁻¹
Kd [4]: 656 pM
koff [4]: 0.00027 s⁻¹
kon [4]: 408000 M⁻¹ s⁻¹
Kd [5]: 39.4 pM
koff [5]: 0.000256 s⁻¹
kon [5]: 6.5e+06 M⁻¹ s⁻¹
Kd [6]: 164 pM
koff [6]: 0.000711 s⁻¹
kon [6]: 4.33e+06 M⁻¹ s⁻¹
Kd [7]: 66.8 pM
koff [7]: 0.000511 s⁻¹
kon [7]: 7.65e+06 M⁻¹ s⁻¹
Kd [8]: 256 pM
koff [8]: 0.000307 s⁻¹
kon [8]: 1.2e+06 M⁻¹ s⁻¹
Kd [9]: 610 pM
koff [9]: 0.000423 s⁻¹
kon [9]: 694000 M⁻¹ s⁻¹

B1: mouse anti-hCXCR5 mAb clone 16D7 (antibody, V domains shown)
VH: QVQLKESGPGLVAPSQSLSITCTVSGFSLIDYGVNWIRQPPGKGLEWLGVIWGDGTTYYNSALKSRLSIRKDNSQSQVFLKMNSLQTDDTAMYYCARIVYWGQGTLVTVSA
VL: DIVMTQAAPSVAVTPRESVSISCRSSKSLLHSSGKTYLYWFLQRPGQSPQLLIYRMSNLASGVPDRFSGSGSGTAFTLRISRVEAEDVGVYYCMQHLEYPYTFGGGTKLEIK
Kd [3]: 65 pM
koff [3]: 4.59e-05 s⁻¹
kon [3]: 708000 M⁻¹ s⁻¹
koff [10]: 9.85e-08 s⁻¹
Kd [11]: 39.9 pM
koff [11]: 9.62e-06 s⁻¹
kon [11]: 240000 M⁻¹ s⁻¹
Kd [4]: 503 pM
koff [4]: 0.000241 s⁻¹
kon [4]: 480000 M⁻¹ s⁻¹
kon [5]: 1.01e+06 M⁻¹ s⁻¹
Kd [6]: 70.2 pM
koff [6]: 4.71e-05 s⁻¹
kon [6]: 681000 M⁻¹ s⁻¹
Kd [7]: 32.5 pM
koff [7]: 2.7e-05 s⁻¹
kon [7]: 832000 M⁻¹ s⁻¹
fold slower off-rate [12]: > 10 fold
Kd [13]: 39.6 pM
koff [13]: 1.28e-05 s⁻¹
kon [13]: 318000 M⁻¹ s⁻¹
Kd [14]: 0.0974 pM

B2: CXCL13 (ligand, UniProt O43927 23-109, looked up)
chain: VLEVYYTSLRCRCVQESSVFIPRRFIDRIQILPRGNGCPRKEIIVWKKNKSIVCVDPQAEWIQRMMEVLRKRSSSTLPVPVFKRKIP
notes: also called hCXCR5 ligand
Kd [11]: 1370 pM
koff [11]: 0.00718 s⁻¹
kon [11]: 5.26e+06 M⁻¹ s⁻¹
Kd [13]: 891 pM
koff [13]: 0.00553 s⁻¹
kon [13]: 6.25e+06 M⁻¹ s⁻¹
